Data as given in article PMC4457900, “Preclinical Pharmacokinetic Studies of the Tritium Labelled D-Enantiomeric Peptide D3 Developed for the Treatment of Alzheimer´s Disease” (PLoS ONE, 2015).
Entries after “also recorded” stand apart in the source; their conditions may differ.

Experiments:
[1] = target: T1, human serum albumin (HSA) (Homo sapiens, UniProt P02768); assay: Plasma protein binding, TRANSIL XL kit, HSA; assay type: in vitro ADME; conditions: 5 μM D3 (with 3H-D3) in PBS, LSC of supernatant, above detection limit of the kit, n = 2
T1 construct: purchased Sovicell GmbH, Leipzig, Germany
Procedure: Plasma protein binding was estimated by incubation of D3 with varying concentrations of protein using TRANSIL^XL binding kits (Sovicell GmbH, Leipzig, Germany). KD values were determined by titrating a constant drug concentration against different concentrations of human serum albumin (HSA) and α1-acid glycoprotein (AGP). Experiments were performed as recommended for the kit. To obtain the desired D3 stock solution of 80 μM, non-radioactively labelled D3 was dissolved in PBS and 5% ^3H-labelled D3 solution was added for detection purposes. A final concentration of 5 μM D3 was applied in the assay. After incubation and centrifugation 15 μl supernatant were taken and scintillation cocktail was added. This was done in triplicate. Radioactivity was then quantified using liquid scintillation counting. After measuring the disintegrations per minute (dpm) of the supernatant containing the unbound peptide, the D3 fraction bound to the titrated protein was calculated and plotted against the protein concentrations. […]
For bioavailability determination, the unbound fraction of D3 (fu) was calculated using the equation below: fu=100*CD3−KD−Cphysiol/2+KD*CD3+(CD3−KD−Cphysiol/2)^2/CD3 (1) For very low D3 concentrations in blood (CD3), Eq (1) can be simplified by Eq (2), where the unbound fraction of D3 can be calculated independently of the applied D3 concentration. […]

[2] = Proteolytic stability in mouse plasma (TLC, autoradiography); assay type: in vitro ADME; conditions: freshly prepared mouse plasma, 37°C, 1 μCi (approx. 0.08–0.8 μg) peptide with 1 μl plasma, D3 up to 2 days, L-form 0 and 60 min, 3H-autoradiography
Procedure: In order to study the proteolytic stability of peptides in biological extracts, tritium labelled peptides were incubated with liver microsomes (pooled from mouse (CD-1), Sigma-Aldrich), freshly prepared mouse plasma or extracts of brain, liver and kidney at 37°C for different time periods (from 0 min to 2 days). 1 μCi (approx. 0.08–0.8 μg) radioactive labelled peptide was mixed with 1 μl microsomes stock solution, plasma or organ extracts, respectively (in great excess to peptide). Mixtures containing tritium-labelled peptides were applied onto HPTLC Silica Gel 60 plates (OMNILAB, Essen, Germany) for thin layer chromatography (TLC) with a mobile solvent (2-Butanol/Pyridine/Ammonia(28%)/Water(39/34/10/26)). After development, a phosphor imaging plate for ^3H-autoradiography (FUJIFILM, Tokyo, Japan) was exposed to the TLC plates for 3 days. Images were acquired with a BAS reader and AIDA software (Raytest, Freiburg, Germany). Retardation factor (Rf) of each substance was defined as the ratio of the migration distance of the centre of a separated spot to the migration distance of the solvent front.

Substance	Kd [1] [mM]	proteolytic degradation in plasma [2]
D3: fully D-enantiomeric peptide identified by mirror-image phage display for binding to Aβ (1–42) (RPRTRLHTHRNR; all residues are D-amino acids (rprtrlhthrnr); tracer form carries 4,5-3H-D-Leu at position 6)	> 1.4	
RPRTR-(4,5-^3H-Leu)-HTHRNR [3H-(L)-D3, tritium labelled L-form enantiomer of D3, RPRTR-(4,5-3H-Leu)-HTHRNR]		significant degradation already after 60 min; also recorded: Obvious proteolytic degradation
